In patent US20020123042A1 (CHIRON, published 2002):

Target: T1, full-length HA-epitope tagged huBUB1 (plasmid p396-1) (human, UniProt O43683 1-1085)
T1 construct: In vitro translated; precipitated with anti-HA monoclonal antibody and Protein G beads; also called HA-huBUB1; HA-BUB1; not shown: triple HA tag
Assay: anti-HA co-immunoprecipitation of in vitro translated proteins, BUB3 present
Source text: ³⁵S-methionine-labeled proteins and polypeptides were then produced from these plasmids by coupled in vitro transcription/translation reactions (IVT), as described above. IVT reactions were immunoprecipitated (IP), using either anti-FLAG agarose beads (Kodak IBI) or anti-HA monoclonal antibody combined with Protein G beads (BMB). Beads were extensively washed as previously described to ensure the removal of non-specifically-associated proteins, including relatively stringent washes in 2 M NaCl buffer. Bound proteins were released from beads by heating samples in SDS-sample buffer and were analyzed on 10-20% SDS-PAGE gels. Aliquots of initial ³⁵S-labeled translation reactions were analyzed as well.

binding result: no binding
B1: wild-type huBUB1 (full-length, plasmid p385-1) (enzyme)
chain: MDTPENVLQMLEAHMQSYKGNDPLGEWERYIQWVEENFPENKEYLITLLEHLMKEFLDKKKYHNDPRFISYCLKFAEYNSDLHQFFEFLYNHGIGTLSSPLYIAWAGHLEAQGELQHASAVLQRGIQNQAEPREFLQQQYRLFQTRLTETHLPAQARTSEPLHNVQVLNQMITSKSNPGNNMACISKNQGSELSGVISSACDKESNMERRVITISKSEYSVHSSLASKVDVEQVVMYCKEKLIRGESEFSFEELRAQKYNQRRKHEQWVNEDRHYMKRKEANAFEEQLLKQKMDELHKKLHQVVETSHEDLPASQERSEVNPARMGPSVGSQQELRAPCLPVTYQQTPVNMEKNPREAPPVVPPLANAISAALVSPATSQSIAPPVPLKAQTVTDSMFAVASKDAGCVNKSTHEFKPQSGAEIKEGCETHKVANTSSFHTTPNTSLGMVQATPSKVQPSPTVHTKEALGFIMNMFQAPTLPDISDDKDEWQSLDQNEDAFEAQFQKNVRSSGAWGVNKIISSLSSAFHVFEDGNKENYGLPQPKNKPTGARTFGERSVSRLPSKPKEEVPHAEEFLDDSTVWGIRCNKTLAPSPKSPGDFTSAAQLASTPFHKLPVESVHILEDKENVVAKQCTQATLDSCEENMVVPSRDGKFSPIQEKSPKQALSSHMYSASLLRLSQPAAGGVLTCEAELGVEACRLTDTDAAIAEDPPDAIAGLQAEWMQMSSLGTVDAPNFIVGNPWDDKLIFKLLSGLSKPVSSYPNTFEWQCKLPAIKPKTEFQLGSKLVYVHHLLGEGAFAQVYEATQGDLNDAKNKQKFVLKVQKPANPWEFYIGTQLMERLKPSMQHMFMKFYSAHLFQNGSVLVGELYSYGTLLNAINLYKNTPEKVMPQGLVISFAMRMLYMIEQVHDCEIIHGDIKPDNFILGNGFLEQDDEDDLSAGLALIDLGQSIDMKLFPKGTIFTAKCETSGFQCVEMLSNKPWNYQIDYFGVAATVYCMLFGTYMKVKNEGGECKPEGLFRRLPHLDMWNEFFHVMLNIPDCHHLPSLDLLRQKLKKVFQQHYTNKIRALRNRLIVLLLECKRSRK
notes: Full-length, untagged protein made in vitro (T7 TnT kit), 35S-methionine-labeled or unlabeled; also called full-length huBUB1; untagged huBUB1
